In patent US20250179589A1, “SYNTHETIC LETHALITY AND THE TREATMENT OF CANCER” (PACYLEX PHARMACEUTICALS INC., priority 2012, published 2025):
Blank lines part the entries; values can stand above or below the molecule they belong to.

Assays:
Jurkat T cells = assay: Effect of HMA on the induction of apoptosis, immunoblot; assay type: cell-based, human
Procedure: HMA was saponified and conjugated to bovine serum albumin (BSA) prior to addition to cells to facilitate its cellular uptake as described previously (Yap et al., 2010). Briefly, HMA was incubated with a 20% molar excess of potassium hydroxide (KOH) at 65° C. for 15 min. Subsequently, a 20× solution was made by dissolving the KOH saponified HMA in serum-free RPMI media containing 20% fatty acid-free BSA at 37° C., followed by an additional 15 min incubation at 37° C. Since sodium myristate was used as a control, it was also incubated in serum-free RPMI media containing 20% fatty acid-free BSA at 37° C. prior to addition to cells. Subsequently, Jurkat T cells (1×10^7 cells) were incubated with either 1 mM HMA or 1 mM sodium myristate conjugated to fatty-acid free BSA (final concentration in cell culture 1%) for 1 h at 37° C. in RPMI media (without FBS, supplements or antibiotics). After incubation, apoptosis was induced using anti-Fas (150 ng/mL) or STS (2.5 μM) with cycloheximide (5 μg/mL) or vehicle alone (DMSO). Samples were collected every 2 h for an 8 h period, washed with cold PBS and lysed with 0.3 mL of 1% sodium dodecyl sulfate (SDS)-radio-immuno-precipitation assay (RIPA) buffer and subjected to 2 rounds of sonication for 15 seconds at an output of 5.5-6.5 on a Branson Sonifier and placed on ice for 2 min in between each cycle. […]

[1] = target: myristoylatable decapeptide corresponding to the N-terminal sequence of ct-Bid; assay: cell-based or functional assay
His-NMT1 (recombinant …) = target: T1, His-NMT1 (recombinant hexahistidine-tagged full-length human N-myristoyltransferase 1), P30419
T1 chain: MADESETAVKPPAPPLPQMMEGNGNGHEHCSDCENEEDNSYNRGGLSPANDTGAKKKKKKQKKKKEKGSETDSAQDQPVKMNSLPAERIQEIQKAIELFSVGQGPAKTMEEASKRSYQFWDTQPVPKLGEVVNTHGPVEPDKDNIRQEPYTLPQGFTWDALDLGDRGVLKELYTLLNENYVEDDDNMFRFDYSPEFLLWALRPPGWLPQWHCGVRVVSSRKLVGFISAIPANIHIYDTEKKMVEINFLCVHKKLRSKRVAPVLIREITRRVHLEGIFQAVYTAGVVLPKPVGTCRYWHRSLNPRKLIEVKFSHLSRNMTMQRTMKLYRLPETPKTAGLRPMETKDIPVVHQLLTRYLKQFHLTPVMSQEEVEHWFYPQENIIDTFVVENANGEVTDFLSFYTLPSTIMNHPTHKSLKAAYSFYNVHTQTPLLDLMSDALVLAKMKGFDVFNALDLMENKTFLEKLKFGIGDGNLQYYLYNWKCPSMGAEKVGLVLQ

His-NMT2 (recombinant …) = target: T2, His-NMT2 (recombinant hexahistidine-tagged full-length human N-myristoyltransferase 2), O60551
T2 chain: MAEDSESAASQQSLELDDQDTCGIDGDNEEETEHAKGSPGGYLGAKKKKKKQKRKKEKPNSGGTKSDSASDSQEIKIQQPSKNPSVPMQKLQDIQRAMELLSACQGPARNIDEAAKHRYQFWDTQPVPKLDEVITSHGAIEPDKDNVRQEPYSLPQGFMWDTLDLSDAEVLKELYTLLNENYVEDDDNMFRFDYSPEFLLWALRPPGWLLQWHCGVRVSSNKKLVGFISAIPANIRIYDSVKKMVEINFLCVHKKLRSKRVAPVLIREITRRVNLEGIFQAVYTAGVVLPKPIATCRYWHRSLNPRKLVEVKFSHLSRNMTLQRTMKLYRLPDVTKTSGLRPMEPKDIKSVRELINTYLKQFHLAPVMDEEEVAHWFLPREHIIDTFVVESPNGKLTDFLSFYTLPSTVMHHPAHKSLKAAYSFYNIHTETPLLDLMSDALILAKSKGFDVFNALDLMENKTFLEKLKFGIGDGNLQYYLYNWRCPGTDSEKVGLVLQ

[2] = target: T3, myristoylatable decapeptide corresponding to the N-terminal sequence of ct-Bid
T3 chain: GNRSSHSRLG

Molecule: CCCCCCCCCCCCC(O)C(=O)O (stereo not shown) [HMA, 2-hydroxymyristic acid]
- time by which cleavage of PARP-1 occurred sooner than with 1 mM sodium myristate (Jurkat T cells; 1 mM HMA and anti-Fas): 2 h
- PARP-1 and PAK2 cleavage vs STS and 1 mM sodium myristate (Jurkat T cells; HMA/STS, 2 h post induction): more PARP-1 and PAK2 cleavage

- NMT activity in lysates of transfected COS-7 cells relative to cells expressing V5-NMT2 (peptide myristoylation assay) [1]: 5 fold
Molecule: V5-NMT1 (N-terminally V5-tagged NMT1) (from UniProt P30419 1-496) (enzyme)

B1: recombinant human active caspase-8 (protein)
chain: SESQTLDKVYQMKSKPRGYCLIINNHNFAKAREKVPKLHSIRDRNGTHLDAGALTTTFEELHFEIKPHDDCTVEQIYEILKIYQLMDHSNMDCFICCILSHGDKGIIYGTDGQEAPIYELTSQFTGLKCPSLAGKPKVFFIQACQGDNYQKGIPVETDSEEQPYLEMDLSSPQTRYIPDEADFLLGMATVNNCVSYRNPAEGTWYIQSLCQSLRERCPRGDDILTILTEVNYEVSNKDDKKNMGKQMPQPTFTLRKKLVFPSD
- in vitro NMT cleavage assay (Coomassie stained gel) (His-NMT1 (recombinant …)): Reconstitution of NMT1 cleavage by caspases-8 and -3, and, NMT2 cleavage by caspase-3 in vitro

B2: recombinant human active caspase-3 (protein)
chain: SGISLDNSYKMDYPEMGLCIIINNKNFHKSTGMTSRSGTDVDAANLRETFRNLKYEVRNKNDLTREEIVELMRDVSKEDHSKRSSFVCVLLSHGEEGIIFGTNGPVDLKKITNFFRGDRCRSLTGKPKLFIIQACRGTELDCGIETDSGVDDDMACHKIPVEADFLYAYSTAPGYYSWRNSKDGSWFIQSLCAMLKQYADKLEFMHILTRVNRKVATEFESFSFDATFHAKKQIPCIVSMLTKELYFYH
- in vitro NMT cleavage assay (Coomassie stained gel) (His-NMT2 (recombinant …)): Reconstitution of NMT1 cleavage by caspases-8 and -3, and, NMT2 cleavage by caspase-3 in vitro
- in vitro NMT cleavage assay (Coomassie stained gel) (His-NMT1 (recombinant …)): Reconstitution of NMT1 cleavage by caspases-8 and -3, and, NMT2 cleavage by caspase-3 in vitro

B3: His-NMT1 (recombinant hexahistidine-tagged full-length human N-myristoyltransferase 1) (protein)
chain: MADESETAVKPPAPPLPQMMEGNGNGHEHCSDCENEEDNSYNRGGLSPANDTGAKKKKKKQKKKKEKGSETDSAQDQPVKMNSLPAERIQEIQKAIELFSVGQGPAKTMEEASKRSYQFWDTQPVPKLGEVVNTHGPVEPDKDNIRQEPYTLPQGFTWDALDLGDRGVLKELYTLLNENYVEDDDNMFRFDYSPEFLLWALRPPGWLPQWHCGVRVVSSRKLVGFISAIPANIHIYDTEKKMVEINFLCVHKKLRSKRVAPVLIREITRRVHLEGIFQAVYTAGVVLPKPVGTCRYWHRSLNPRKLIEVKFSHLSRNMTMQRTMKLYRLPETPKTAGLRPMETKDIPVVHQLLTRYLKQFHLTPVMSQEEVEHWFYPQENIIDTFVVENANGEVTDFLSFYTLPSTIMNHPTHKSLKAAYSFYNVHTQTPLLDLMSDALVLAKMKGFDVFNALDLMENKTFLEKLKFGIGDGNLQYYLYNWKCPSMGAEKVGLVLQ
- NMT activity (filter-based peptide myristoylation assay) [2]: both full-length and caspase cleaved truncated NMT1 and NMT2 were catalytically active when compared to the control

B4: His-68NMT2 (His-tagged caspase-cleaved, truncated human NMT2) (protein)
chain: SASDSQEIKIQQPSKNPSVPMQKLQDIQRAMELLSACQGPARNIDEAAKHRYQFWDTQPVPKLDEVITSHGAIEPDKDNVRQEPYSLPQGFMWDTLDLSDAEVLKELYTLLNENYVEDDDNMFRFDYSPEFLLWALRPPGWLLQWHCGVRVSSNKKLVGFISAIPANIRIYDSVKKMVEINFLCVHKKLRSKRVAPVLIREITRRVNLEGIFQAVYTAGVVLPKPIATCRYWHRSLNPRKLVEVKFSHLSRNMTLQRTMKLYRLPDVTKTSGLRPMEPKDIKSVRELINTYLKQFHLAPVMDEEEVAHWFLPREHIIDTFVVESPNGKLTDFLSFYTLPSTVMHHPAHKSLKAAYSFYNIHTETPLLDLMSDALILAKSKGFDVFNALDLMENKTFLEKLKFGIGDGNLQYYLYNWRCPGTDSEKVGLVLQ
- NMT activity (filter-based peptide myristoylation assay) [2]: both full-length and caspase cleaved truncated NMT1 and NMT2 were catalytically active when compared to the control
- NMT activity relative to full-length NMT2 (filter-based peptide myristoylation assay) [2]: ˜4-fold (His-68NMT2) more activity when compared to full-length NMT2

B5: His-NMT2 (recombinant hexahistidine-tagged full-length human N-myristoyltransferase 2) (protein)
chain: MAEDSESAASQQSLELDDQDTCGIDGDNEEETEHAKGSPGGYLGAKKKKKKQKRKKEKPNSGGTKSDSASDSQEIKIQQPSKNPSVPMQKLQDIQRAMELLSACQGPARNIDEAAKHRYQFWDTQPVPKLDEVITSHGAIEPDKDNVRQEPYSLPQGFMWDTLDLSDAEVLKELYTLLNENYVEDDDNMFRFDYSPEFLLWALRPPGWLLQWHCGVRVSSNKKLVGFISAIPANIRIYDSVKKMVEINFLCVHKKLRSKRVAPVLIREITRRVNLEGIFQAVYTAGVVLPKPIATCRYWHRSLNPRKLVEVKFSHLSRNMTLQRTMKLYRLPDVTKTSGLRPMEPKDIKSVRELINTYLKQFHLAPVMDEEEVAHWFLPREHIIDTFVVESPNGKLTDFLSFYTLPSTVMHHPAHKSLKAAYSFYNIHTETPLLDLMSDALILAKSKGFDVFNALDLMENKTFLEKLKFGIGDGNLQYYLYNWRCPGTDSEKVGLVLQ
- NMT activity (filter-based peptide myristoylation assay) [2]: both full-length and caspase cleaved truncated NMT1 and NMT2 were catalytically active when compared to the control

B6: His-26NMT2 (His-tagged caspase-cleaved, truncated human NMT2) (protein)
chain: GDNEEETEHAKGSPGGYLGAKKKKKKQKRKKEKPNSGGTKSDSASDSQEIKIQQPSKNPSVPMQKLQDIQRAMELLSACQGPARNIDEAAKHRYQFWDTQPVPKLDEVITSHGAIEPDKDNVRQEPYSLPQGFMWDTLDLSDAEVLKELYTLLNENYVEDDDNMFRFDYSPEFLLWALRPPGWLLQWHCGVRVSSNKKLVGFISAIPANIRIYDSVKKMVEINFLCVHKKLRSKRVAPVLIREITRRVNLEGIFQAVYTAGVVLPKPIATCRYWHRSLNPRKLVEVKFSHLSRNMTLQRTMKLYRLPDVTKTSGLRPMEPKDIKSVRELINTYLKQFHLAPVMDEEEVAHWFLPREHIIDTFVVESPNGKLTDFLSFYTLPSTVMHHPAHKSLKAAYSFYNIHTETPLLDLMSDALILAKSKGFDVFNALDLMENKTFLEKLKFGIGDGNLQYYLYNWRCPGTDSEKVGLVLQ
- NMT activity (filter-based peptide myristoylation assay) [2]: both full-length and caspase cleaved truncated NMT1 and NMT2 were catalytically active when compared to the control
- NMT activity relative to full-length NMT2 (filter-based peptide myristoylation assay) [2]: ˜3-fold (His-26NMT2) ... more activity when compared to full-length NMT2

B7: His-73NMT1 (His-tagged caspase-cleaved, truncated human NMT1) (protein)
chain: SAQDQPVKMNSLPAERIQEIQKAIELFSVGQGPAKTMEEASKRSYQFWDTQPVPKLGEVVNTHGPVEPDKDNIRQEPYTLPQGFTWDALDLGDRGVLKELYTLLNENYVEDDDNMFRFDYSPEFLLWALRPPGWLPQWHCGVRVVSSRKLVGFISAIPANIHIYDTEKKMVEINFLCVHKKLRSKRVAPVLIREITRRVHLEGIFQAVYTAGVVLPKPVGTCRYWHRSLNPRKLIEVKFSHLSRNMTMQRTMKLYRLPETPKTAGLRPMETKDIPVVHQLLTRYLKQFHLTPVMSQEEVEHWFYPQENIIDTFVVENANGEVTDFLSFYTLPSTIMNHPTHKSLKAAYSFYNVHTQTPLLDLMSDALVLAKMKGFDVFNALDLMENKTFLEKLKFGIGDGNLQYYLYNWKCPSMGAEKVGLVLQ
- NMT activity (filter-based peptide myristoylation assay) [2]: both full-length and caspase cleaved truncated NMT1 and NMT2 were catalytically active when compared to the control
